System: K4 kissing-loop RNA reporter
Assay: apparent KD of K4 kissing-loop reporter; higher = weaker reporter binding
Conditions: Eterna round: R107
Description: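 RNA-MaP round R107: designed RNA switches with theophylline, tryptophan, arginine or FMN aptamers are transcribed on-chip within common flanks. They are titrated with a labelled K4 kissing-loop RNA reporter in RNA-MaP buffer (100 mM Tris pH 7.5, 80 mM KCl, 4 mM MgCl2), without ligand or with the indicated ligand. Median apparent KD per design.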

[1] = input ligand: theophylline 20 uM
[2] = input ligand: tryptophan 2.4 mM
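Further: bound reporter read as fluorescence of individual clusters on recovered sequencing chips by microscopy, with normalized cluster intensities fitted with a binding model.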

## AAGCGUGUGGCGGCCGCCACUAGUCUCCAGUGAUGUUGGAGAUAUCACGUAAGUGAUAUCCGACAUAGGACCGGGCCAUAUGGAA [Same State - Tryptophan B (Freestyle 22)]
Input ligand: FMN 200 uM
  apparent KD of K4 kissing-loop reporter: 587 nM
Input ligand: arginine 13.2 mM
  apparent KD of K4 kissing-loop reporter: 299 nM
Input ligand: none
  apparent KD of K4 kissing-loop reporter: 813 nM
[1]
  apparent KD of K4 kissing-loop reporter: 612 nM
[2]
  apparent KD of K4 kissing-loop reporter: 207 nM

## AAGGGCUAGGCGGCCGCCACUGGUCGUGUACACAUACAAACCAGUGAUGUUGGUAUUGUAUGCGACAGGACCGGGCCUAGCCGAA [Exclusion - Tryptophan B (Freestyle 28)]
Input ligand: FMN 200 uM
  apparent KD of K4 kissing-loop reporter: 280 nM
Input ligand: arginine 13.2 mM
  apparent KD of K4 kissing-loop reporter: 229 nM
Input ligand: none
  apparent KD of K4 kissing-loop reporter: 323 nM
[1]
  apparent KD of K4 kissing-loop reporter: 258 nM
[2]
  apparent KD of K4 kissing-loop reporter: 481 nM

## AAGGGCUAGGCGGCCGCCACUGGUCGUGUACACAUACAGACCAGUGAUGUUGGUAUUGUAUGCGACAGGACCGGGCCUAGCCCAA [Exclusion - Tryptophan B (Freestyle 29)]
Input ligand: FMN 200 uM
  apparent KD of K4 kissing-loop reporter: 267 nM
Input ligand: arginine 13.2 mM
  apparent KD of K4 kissing-loop reporter: 230 nM
Input ligand: none
  apparent KD of K4 kissing-loop reporter: 263 nM
[1]
  apparent KD of K4 kissing-loop reporter: 247 nM
[2]
  apparent KD of K4 kissing-loop reporter: 445 nM

## AAGGGCUAGGCGGCCGCCACUGGUCGUGUACACAUACGAACCAGUGAUGUUGGUAUUGUAUGCGACAGGACCGGGCCUAGCCGAA [Exclusion - Tryptophan B (Freestyle 27)]
Input ligand: FMN 200 uM
  apparent KD of K4 kissing-loop reporter: 313 nM
Input ligand: arginine 13.2 mM
  apparent KD of K4 kissing-loop reporter: 194 nM
Input ligand: none
  apparent KD of K4 kissing-loop reporter: 249 nM
[1]
  apparent KD of K4 kissing-loop reporter: 364 nM
[2]
  apparent KD of K4 kissing-loop reporter: 291 nM

## AAGGUGAUCCUCGAUACCAGCUCAAAAUGAGUGAUGUUCAUGAAAGCCUGGAAACAGGCGAGCCCUUGGCAGCGAGUUACAUCAA [KL-SSTheoB8]
Input ligand: FMN 200 uM
  apparent KD of K4 kissing-loop reporter: 204 nM
Input ligand: arginine 13.2 mM
  apparent KD of K4 kissing-loop reporter: 162 nM
Input ligand: none
  apparent KD of K4 kissing-loop reporter: 162 nM
[1]
  apparent KD of K4 kissing-loop reporter: 134 nM
[2]
  apparent KD of K4 kissing-loop reporter: 154 nM

## AAGUAGUCCCUUGUUGUCAUCGAAGAUGAACGAGGACCGGUACGGCCGCCACUCGGAGUGAUGUUCCGAUGGCUGCAAAAUAAAA [MatMod 22 - Jieux - Exclusion - Tryptophan A]
Input ligand: FMN 200 uM
  apparent KD of K4 kissing-loop reporter: 103 nM
Input ligand: arginine 13.2 mM
  apparent KD of K4 kissing-loop reporter: 88.9 nM
Input ligand: none
  apparent KD of K4 kissing-loop reporter: 92 nM
[1]
  apparent KD of K4 kissing-loop reporter: 91.4 nM
[2]
  apparent KD of K4 kissing-loop reporter: 101 nM

## AAGUCAUAGGCAGGAUAUGCAUAGUAAUAAGGCAAUAUCUACGUAUAGAGUGAUGUUUUGUACCAGGCAGAAGGGCUACAUCAGU [FMN B Excl V9 (+4A/C)]
Input ligand: FMN 200 uM
  apparent KD of K4 kissing-loop reporter: 635 nM
Input ligand: arginine 13.2 mM
  apparent KD of K4 kissing-loop reporter: 407 nM
Input ligand: none
  apparent KD of K4 kissing-loop reporter: 514 nM
[1]
  apparent KD of K4 kissing-loop reporter: 554 nM
[2]
  apparent KD of K4 kissing-loop reporter: 424 nM

## AAGUCAUAGGCAGGAUAUGCUUAGUAAUAAGGCCAUAUAUACGUAUAGAGUGAUGUUUUGUACCAGGCAGAAGGGCUACAUCAGU [FMN B Excl V8 (+2A)]
Input ligand: FMN 200 uM
  apparent KD of K4 kissing-loop reporter: 541 nM
Input ligand: arginine 13.2 mM
  apparent KD of K4 kissing-loop reporter: 276 nM
Input ligand: none
  apparent KD of K4 kissing-loop reporter: 373 nM
[1]
  apparent KD of K4 kissing-loop reporter: 532 nM
[2]
  apparent KD of K4 kissing-loop reporter: 544 nM

## AAGUCAUAUAGAAGGAGCGUGUUUUAUAAUUUAUUUUCAUGAUCGAGUGAUGUUCGAUAUACACAGGUAGGUCGCUGUAUAAUAA [hbob_SS_Arginine_B_2t140]
Input ligand: FMN 200 uM
  apparent KD of K4 kissing-loop reporter: 114 nM
Input ligand: arginine 13.2 mM
  apparent KD of K4 kissing-loop reporter: 144 nM
Input ligand: none
  apparent KD of K4 kissing-loop reporter: 129 nM
[1]
  apparent KD of K4 kissing-loop reporter: 133 nM
[2]
  apparent KD of K4 kissing-loop reporter: 101 nM

## AAGUGAUGUUGUAGUGAUGUUGUGAUGUUGCAGGAUAUAUAGUGAUGUAGAAGGGUAAGGACUGUUUUUUUUUUUGAGUGAUGUU [ookooyzrmullin]
Input ligand: FMN 200 uM
  apparent KD of K4 kissing-loop reporter: 94.2 nM
Input ligand: arginine 13.2 mM
  apparent KD of K4 kissing-loop reporter: 41.4 nM
Input ligand: none
  apparent KD of K4 kissing-loop reporter: 70.5 nM
[1]
  apparent KD of K4 kissing-loop reporter: 56.8 nM
[2]
  apparent KD of K4 kissing-loop reporter: 73.3 nM

## AAGUGAUGUUGUAGUGAUGUUGUGAUGUUGCAGGAUAUAUAGUGAUGUAGAAGGGUAUGUACUUAUUUUUUAUUUGAGUUAUGUU [mmvmmullin]
Input ligand: FMN 200 uM
  apparent KD of K4 kissing-loop reporter: 72.1 nM
Input ligand: arginine 13.2 mM
  apparent KD of K4 kissing-loop reporter: 29.8 nM
Input ligand: none
  apparent KD of K4 kissing-loop reporter: 56.1 nM
[1]
  apparent KD of K4 kissing-loop reporter: 43.9 nM
[2]
  apparent KD of K4 kissing-loop reporter: 57.2 nM

## AAGUGAUGUUGUAGUGAUGUUGUGAUGUUGCAGGAUAUAUAGUGAUGUAGAAGGGUAUGUGCAGUGUUGUUGUUUGAGUGUUCAU [dttyumullin]
Input ligand: FMN 200 uM
  apparent KD of K4 kissing-loop reporter: 95.4 nM
Input ligand: arginine 13.2 mM
  apparent KD of K4 kissing-loop reporter: 41.8 nM
Input ligand: none
  apparent KD of K4 kissing-loop reporter: 73.7 nM
[1]
  apparent KD of K4 kissing-loop reporter: 74.7 nM
[2]
  apparent KD of K4 kissing-loop reporter: 68.4 nM

## AAGUGAUGUUGUAGUGAUGUUGUGAUGUUGCAGGAUAUAUAGUGAUGUAGAAGGGUAUGUGCAGUGUUGUUGUUUGAGUGUUGAU [twwumullin]
Input ligand: FMN 200 uM
  apparent KD of K4 kissing-loop reporter: 90.3 nM
Input ligand: arginine 13.2 mM
  apparent KD of K4 kissing-loop reporter: 43.2 nM
Input ligand: none
  apparent KD of K4 kissing-loop reporter: 74.7 nM
[1]
  apparent KD of K4 kissing-loop reporter: 68.6 nM
[2]
  apparent KD of K4 kissing-loop reporter: 68.7 nM

## AAGUGAUGUUGUAGUGAUGUUGUGAUGUUGCAGGAUAUAUAGUGAUGUAGAAGGGUAUGUGCAGUUUUCUUAUUUGAGUGUUGAU [zwzamullin]
Input ligand: FMN 200 uM
  apparent KD of K4 kissing-loop reporter: 75.9 nM
Input ligand: arginine 13.2 mM
  apparent KD of K4 kissing-loop reporter: 33.2 nM
Input ligand: none
  apparent KD of K4 kissing-loop reporter: 62.6 nM
[1]
  apparent KD of K4 kissing-loop reporter: 49.5 nM
[2]
  apparent KD of K4 kissing-loop reporter: 61.3 nM

## AAGUGUCAUUAGACACAGACUACAAUAAACUAGGAUAUGCUGAUAAGCAGAAGGAGUGAUGUUCCUUUCAAGUAGUCAAUUAAAU [FmnAX 20 Mat Inspired #SwitchBubble #StaticStem #K4Late]
Input ligand: FMN 200 uM
  apparent KD of K4 kissing-loop reporter: 243 nM
Input ligand: arginine 13.2 mM
  apparent KD of K4 kissing-loop reporter: 120 nM
Input ligand: none
  apparent KD of K4 kissing-loop reporter: 106 nM
[1]
  apparent KD of K4 kissing-loop reporter: 128 nM
[2]
  apparent KD of K4 kissing-loop reporter: 97.6 nM

## AAGUGUGUGGCGGCCGCCACUAGAAUCCAGUGAUGUUGGAGAUAUCAUGUAAAUGAUAUCCAACAUAGGACCGGGCCAUAUAGAA [Same State - Tryptophan B (Freestyle 10)]
Input ligand: FMN 200 uM
  apparent KD of K4 kissing-loop reporter: 126 nM
Input ligand: arginine 13.2 mM
  apparent KD of K4 kissing-loop reporter: 98 nM
Input ligand: none
  apparent KD of K4 kissing-loop reporter: 92.4 nM
[1]
  apparent KD of K4 kissing-loop reporter: 131 nM
[2]
  apparent KD of K4 kissing-loop reporter: 120 nM

## AAGUGUGUGGCGGCCGCCACUAGAAUCCAGUGAUGUUGGAGUUAUCAGAUAAAUGAUAAUCAACAUAGGACCGGGCCAUAUAGAA [Same State - Tryptophan B (Freestyle 5)]
Input ligand: FMN 200 uM
  apparent KD of K4 kissing-loop reporter: 703 nM
Input ligand: arginine 13.2 mM
  apparent KD of K4 kissing-loop reporter: 689 nM
Input ligand: none
  apparent KD of K4 kissing-loop reporter: 455 nM
[1]
  apparent KD of K4 kissing-loop reporter: 630 nM
[2]
  apparent KD of K4 kissing-loop reporter: 425 nM

## AAGUGUUCUAGUGAUACCAGACAUUUCUAUUUUAUCUUUAUAGCUAAGUGAUGUUUAGCAGUCCCUUGGCAGCACUAUUUCACUA [JR_SSTheophyB_Sub017]
Input ligand: FMN 200 uM
  apparent KD of K4 kissing-loop reporter: 123 nM
Input ligand: arginine 13.2 mM
  apparent KD of K4 kissing-loop reporter: 155 nM
Input ligand: none
  apparent KD of K4 kissing-loop reporter: 137 nM
[1]
  apparent KD of K4 kissing-loop reporter: 160 nM
[2]
  apparent KD of K4 kissing-loop reporter: 147 nM

## AAUAAAAUCACGGCCGCCACUGAUGCUAAUAUUAGCAGUGAUGUUGCUAUGUAGAUUUUAUUUAACAGGACCGGGUGAAUAUUUA [JR_SSTryptoB_Sub025]
Input ligand: FMN 200 uM
  apparent KD of K4 kissing-loop reporter: 198 nM
Input ligand: arginine 13.2 mM
  apparent KD of K4 kissing-loop reporter: 124 nM
Input ligand: none
  apparent KD of K4 kissing-loop reporter: 162 nM
[1]
  apparent KD of K4 kissing-loop reporter: 170 nM
[2]
  apparent KD of K4 kissing-loop reporter: 269 nM

## AAUAAAAUCACGGCCGCCACUGAUUUCCAUAUUAGGAGUGAUGUUCCUAUGACUAUAUAAUUUAACAGGACCGGGUGAAUAUUUA [JR_ExcTryptoB_Sub012]
Input ligand: FMN 200 uM
  apparent KD of K4 kissing-loop reporter: 110 nM
Input ligand: arginine 13.2 mM
  apparent KD of K4 kissing-loop reporter: 112 nM
Input ligand: none
  apparent KD of K4 kissing-loop reporter: 108 nM
[1]
  apparent KD of K4 kissing-loop reporter: 111 nM
[2]
  apparent KD of K4 kissing-loop reporter: 93.5 nM

## AAUAACUUGCAGUGAUGUUGCAAGAAAGCUCAGGAUAUCAGGAAACUGAGAAGGGAGCAUCCUGAGCAAACAUCACAACUUAGGA [[K1]-[K2]-[F1]-[F2]-[F]'-[K]'-[F]''_Design2]
Input ligand: FMN 200 uM
  apparent KD of K4 kissing-loop reporter: 368 nM
Input ligand: arginine 13.2 mM
  apparent KD of K4 kissing-loop reporter: 295 nM
Input ligand: none
  apparent KD of K4 kissing-loop reporter: 406 nM
[1]
  apparent KD of K4 kissing-loop reporter: 448 nM
[2]
  apparent KD of K4 kissing-loop reporter: 361 nM

Source: the supplement of paper PMC9170038
